Source: doi:10.1101/2025.09.12.675771 (bioRxiv, 2025)
Substitutions are numbered along the chain they refer to. In names and notes the source's numbering stands.

Legend:
[1] = target: RBD of COVID-19 (SARS-CoV-2, wild type (Wuhan-Hu-1) …, UniProt P0DTC2)
[2] = target: Programmed death-ligand 1 (PD-L1) (Homo sapiens (assumed), UniProt Q9NZQ7); experiment: SPR; format and conditions not told; conditions: both partners purified
[3] = target: SARS-CoV-2 RBD (residues 332-527), wild type (SARS-CoV-2, wild type (Wuhan-Hu-1), UniProt P0DTC2)

Sequence of Programmed death-ligand 1 (PD-L1) (Q9NZQ7 19-290): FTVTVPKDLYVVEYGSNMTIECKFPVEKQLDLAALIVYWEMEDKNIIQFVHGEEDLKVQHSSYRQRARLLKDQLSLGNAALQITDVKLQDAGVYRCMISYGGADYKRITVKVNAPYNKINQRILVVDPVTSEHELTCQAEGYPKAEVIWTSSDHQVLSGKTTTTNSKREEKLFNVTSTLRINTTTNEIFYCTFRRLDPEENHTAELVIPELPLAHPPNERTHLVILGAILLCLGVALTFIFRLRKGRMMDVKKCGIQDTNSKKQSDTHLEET

B1: Human-1 (antibody, V domains shown)
VH: QVQLKESGPGLVKPSQTLSLTCTVSGFSLINYAISWIRQPPGKGLEWIGVIWTGGGTNYNSALKSRLTISKDTSKNQVSLKLSSVTAADTAVYYCARKDYYGRYYGMDYWGQGTTVTVSS
VL: QAVVTQEPSFTVSPGGTVTLTCRSSTGAVTTSNYANWYQQTPGQLFTGLIGGTNNRAPGVPDRFSGSLLGDKAALTITGAQADDEAIYYCALWYNNHWVFGGGTKLTVL
For B1, the Kd [1] was 0.171 nM.

B2: Human-5 (antibody, V domains shown)
VH: QVQLQESGPGLVKPSETLSLTCTVSGFSLINYAISWVRQPPGKGLEWLGVIWTGGGTNYNSALKSRLTISKDNSKNTVYLKMNSLKTEDTARYYCARKDYYGRYYGMDYWGQGTLVTVSS
VL: B1 VL with T11S, Y38V, Q40E, L45A, T47R, D71N, A86S
With B2 the Kd [1] was 0.139 nM.

B3: D1 (antibody, V domains shown)
VH: not shown
VL: DIQMTQSPSTLSASVGDRVTITCKASQDVNTAVAWYQQKPGKAPKLLIYWASTLHTGVPSRFSGSGSGTEFTLTISSLQPDDFATYYCQHYYTDPWTFGQGTKVEIK
B3 was tested, and the Kd [2] was 0.084 nM.

B4: D2 (antibody, V domains shown)
VH: not shown
VL: DIQMTQSPSTLSASVGDRVTITCRASQDVSSYLAWYQQKPGKAPKLLIYAASFLQSGVPSRFSGSGSGTEFTLTISSLQPDDFATYYCQQHYSTPPTFGQGTKVEIK
B4: binds [2].

B5: D4 (antibody, V domains shown)
VH: EVQLLESGGGLVQPGGSLRLSCAASGFTFSNYAMSWVRQAPGKGLEWVSAISSGGGYTYYADSVKGRFTISRDNSKNTLYLQMNSLRAEDTAVYYCAKDHDYAYYAFDYWGQGTLVTVSS
VL: B4 VL with D28S, V29I, S31N, Y32W, A50W, F53T, Q55E, H91Y, Y92A, P96L
B5: binds [2].

B6: D3 (antibody, V domains shown)
VH: not shown
VL: DIQMTQSPSTLSASVGDRVTITCRASQTIGTWLAWYQQKPGKAPKLLIYTATSLADGVPSRFSGSGSGTEFTLTISSLQPDDFATYYCQQVSSNPRTFGQGTKVEIK
B6: binds [2].

B7: R1-32-Q61E-WT (antibody, V domains shown)
VH: EVQLVQSGAEVKKPGSSVKVSCKASGGTFSSYFISWVRQAPGQGLEWMGGIIPILGIADYAEKFQGRVTITADKSTSTAYMELSSLRSEDTAVYYCARENGYSGYGAAYNFDLWGRGTLVTVSS
VL: QSVLTQPPSVSGAPGQRVTISCTGSDSNIGAGYDVHWYQQLPGTAPKLLIYGNSNRPSGVPDRFSGSKSGTSASLAITGLQAEDEADYYCQSYDSSLSGSVFGGGTKLTVL
B7: binds [3].
